Measurements: the supplement of paper PMC11136658

System: peptide library, one residue held at a place counted from the Y acceptor
Assay: relative phosphorylation of the sub-library (ratio to the mean residue at this position); higher = residue favoured
How it was run: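 Every value reflects phosphorylation relative to the mean randomized residue. The sum of the 18 randomized residues, or 16 in the Ser/Thr-free library, served to normalize intensities at each position, which were then multiplied by that number. Intensities came from phosphorimaging with ImageQuant of biotinylated Tyr-centred peptides captured on streptavidin membranes after 90 min with purified recombinant kinases and 50 μM ATP plus γ-32P-ATP.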

EPHB4, construct: aa561-end, human, sequence (P54760 561-987, looked up): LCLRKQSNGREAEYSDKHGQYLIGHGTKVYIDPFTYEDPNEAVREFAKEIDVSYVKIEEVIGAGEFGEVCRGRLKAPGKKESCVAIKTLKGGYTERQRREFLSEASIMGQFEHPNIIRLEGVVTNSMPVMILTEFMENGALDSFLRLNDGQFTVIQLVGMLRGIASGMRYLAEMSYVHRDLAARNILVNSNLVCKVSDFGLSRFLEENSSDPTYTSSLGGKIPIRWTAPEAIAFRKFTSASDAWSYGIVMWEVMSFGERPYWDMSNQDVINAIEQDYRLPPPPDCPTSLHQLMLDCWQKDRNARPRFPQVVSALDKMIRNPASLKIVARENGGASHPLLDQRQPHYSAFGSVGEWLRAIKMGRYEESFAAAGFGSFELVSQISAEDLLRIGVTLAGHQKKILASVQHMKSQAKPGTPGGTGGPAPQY

EPHB4, construct: aa561-end, human (from UniProt P54760)
relative phosphorylation
Conditions | at +1 | at +2 | at +3 | at +4 | at +5 | at -1 | at -2 | at -3 | at -4 | at -5
A fixed | 2.01 | 0.93 | 0.981 | 0.836 | 0.988 | 0.59 | 1.26 | 0.954 | 1.17 | 1.05
D fixed | 0.98 | 0.854 | 0.481 | 0.969 | 1.18 | 2.38 | 1.15 | 1.32 | 1.09 | 1.12
E fixed | 2.09 | 1.19 | 0.409 | 1 | 0.934 | 1.38 | 1.07 | 1.52 | 1.14 | 0.945
F fixed | 0.651 | 1.15 | 1.06 | 1.01 | 0.879 | 0.933 | 0.628 | 1.16 | 0.904 | 0.895
G fixed | 1.03 | 0.54 | 0.694 | 1.16 | 1.22 | 0.36 | 1.17 | 0.986 | 1.39 | 1.38
H fixed | 0.482 | 0.782 | 1.08 | 1.16 | 0.89 | 0.577 | 0.911 | 0.93 | 0.941 | 0.998
I fixed | 1.02 | 1.19 | 1.47 | 0.663 | 0.675 | 1.91 | 0.772 | 0.996 | 0.965 | 0.775
K fixed | 0.404 | 0.755 | 0.464 | 0.907 | 0.959 | 0.357 | 0.99 | 0.674 | 0.953 | 1.05
L fixed | 0.774 | 0.955 | 1.49 | 0.792 | 0.77 | 1.77 | 0.834 | 0.82 | 0.797 | 0.838
M fixed | 1.36 | 0.914 | 1.25 | 0.969 | 0.934 | 0.806 | 0.722 | 0.8 | 0.962 | 0.949
N fixed | 0.489 | 1.05 | 0.698 | 0.947 | 1.03 | 2.07 | 1 | 1.13 | 0.889 | 1.03
P fixed | 0.319 | 0.821 | 1.46 | 1.29 | 1.45 | 0.513 | 1.6 | 1.21 | 1.35 | 1.27
Q fixed | 1.35 | 1.03 | 0.884 | 1.04 | 1.02 | 0.501 | 1.13 | 0.863 | 1.12 | 0.907
R fixed | 0.455 | 1.08 | 0.624 | 1.14 | 1.13 | 0.389 | 1 | 0.871 | 0.989 | 1.17
S fixed | 1.05 | 0.937 | 0.945 | 0.974 | 1.18 | 0.572 | 1.57 | 1 | 0.915 | 0.953
T fixed | 0.833 | 1.1 | 0.832 | 0.984 | 1.05 | 1.08 | 0.863 | 0.843 | 0.696 | 0.905
V fixed | 1.75 | 1.37 | 1.73 | 0.792 | 0.716 | 1.04 | 0.758 | 0.825 | 0.874 | 0.8
W fixed | 0.957 | 1.36 | 1.45 | 1.36 | 0.991 | 0.773 | 0.567 | 1.1 | 0.859 | 0.97
pThr fixed | 1.45 | 1.7 | 0.467 | 0.855 | 0.682 | 1.61 | 0.917 | 0.96 | 0.855 | 0.898
pTyr fixed | 1.36 | 3.59 | 0.719 | 0.965 | 1.04 | 2.25 | 0.931 | 1.17 | 1.08 | 1.11

ERBB2, construct: aa676-end, human (from UniProt P04626)
relative phosphorylation
Conditions | at +1 | at +2 | at +3 | at +4 | at +5 | at -1 | at -2 | at -3 | at -4 | at -5
A fixed | 0.734 | 0.684 | 0.603 | 0.869 | 1.51 | 0.72 | 0.953 | 0.764 | 0.972 | 0.899
D fixed | 0.56 | 1.04 | 0.571 | 0.774 | 0.521 | 1.88 | 1.26 | 1.48 | 1.19 | 1.04
E fixed | 0.87 | 1.19 | 0.493 | 0.79 | 0.575 | 1.91 | 1.58 | 1.88 | 1.41 | 0.983
F fixed | 1.73 | 1.58 | 2.19 | 1.09 | 0.958 | 1.12 | 0.99 | 1.27 | 1.02 | 1.06
G fixed | 0.526 | 0.504 | 0.621 | 0.943 | 1.06 | 0.567 | 1.15 | 1 | 1.2 | 1.12
H fixed | 1.18 | 0.884 | 0.867 | 1.02 | 1.61 | 0.846 | 0.936 | 0.855 | 0.872 | 1.04
I fixed | 1.5 | 0.984 | 1.86 | 0.764 | 0.878 | 1.62 | 0.932 | 0.726 | 0.985 | 0.909
K fixed | 0.462 | 0.78 | 0.474 | 0.991 | 0.87 | 0.476 | 0.674 | 0.659 | 0.834 | 0.992
L fixed | 1.53 | 0.938 | 1.51 | 0.8 | 1.13 | 1.28 | 0.973 | 0.963 | 0.994 | 1.06
M fixed | 1.17 | 0.924 | 1.26 | 1.23 | 1.25 | 0.986 | 0.837 | 0.937 | 0.959 | 1.01
N fixed | 0.59 | 1.03 | 0.65 | 0.843 | 0.667 | 1.07 | 1.08 | 1.1 | 1.01 | 1.14
P fixed | 0.395 | 0.714 | 0.72 | 1.18 | 1 | 0.617 | 0.922 | 0.795 | 0.924 | 0.987
Q fixed | 0.923 | 1.02 | 0.821 | 0.959 | 0.679 | 0.849 | 1.07 | 0.876 | 1.17 | 1.04
R fixed | 0.555 | 0.837 | 0.669 | 1.18 | 1.28 | 0.506 | 0.825 | 0.824 | 0.952 | 1.03
S fixed | 0.757 | 0.928 | 0.608 | 0.808 | 0.849 | 0.693 | 0.921 | 0.989 | 0.851 | 0.887
T fixed | 0.943 | 0.874 | 0.68 | 0.844 | 0.944 | 0.811 | 0.966 | 0.948 | 0.761 | 0.883
V fixed | 2 | 0.98 | 1.26 | 0.807 | 1.08 | 1.3 | 1.03 | 0.851 | 0.814 | 0.915
W fixed | 1.59 | 2.12 | 2.14 | 2.11 | 1.14 | 0.748 | 0.91 | 1.08 | 1.1 | 0.991
pThr fixed | 1.22 | 1.36 | 0.495 | 0.755 | 0.514 | 1.99 | 1.7 | 1.7 | 1.26 | 1.14
pTyr fixed | 6.36 | 3.29 | 0.953 | 0.93 | 0.82 | 3.1 | 1.62 | 2.2 | 1.91 | 1.25
